This note sets out measurements from patent US20030143656A1 (published 2003).

The term Kd denotes a measure of binding affinity in units of concentration. Higher therefore signals weaker binding.

Changes are numbered by the printed parent chain. “And” between values parts separate entries of the source, which are not always exact repeats. Identical values can stand only once. Where no end group is shown, it is not given here. The star is where a group is joined. Biotin = O=C1N[C@H]2[C@H](CS[C@H]2CCCCC(=O)*)N1

One test addresses T1, GST-PDK1 L155E (human, UniProt O15530 1-556).
T1 construct: range 1-556; not shown: N-terminal GST tag, pEBG2T vector
T1 sequence (looked up): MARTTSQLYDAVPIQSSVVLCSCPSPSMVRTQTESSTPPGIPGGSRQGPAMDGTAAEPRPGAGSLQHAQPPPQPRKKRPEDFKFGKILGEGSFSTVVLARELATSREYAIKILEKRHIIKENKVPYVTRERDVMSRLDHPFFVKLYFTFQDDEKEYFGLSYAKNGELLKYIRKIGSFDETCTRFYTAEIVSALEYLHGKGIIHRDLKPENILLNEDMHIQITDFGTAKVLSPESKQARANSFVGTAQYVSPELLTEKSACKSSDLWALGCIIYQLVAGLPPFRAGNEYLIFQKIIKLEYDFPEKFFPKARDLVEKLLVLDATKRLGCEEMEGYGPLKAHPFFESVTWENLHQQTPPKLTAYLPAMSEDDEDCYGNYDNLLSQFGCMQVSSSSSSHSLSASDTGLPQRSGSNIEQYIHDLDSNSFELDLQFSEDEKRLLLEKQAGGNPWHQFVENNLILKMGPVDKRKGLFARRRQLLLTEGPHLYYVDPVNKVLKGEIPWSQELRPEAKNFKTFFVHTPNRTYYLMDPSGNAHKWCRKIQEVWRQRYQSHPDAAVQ
Nature of the test: SPR over immobilised biotinylated PIFtide. As to the method:
(§1) Duplicates of each condition are shown. Similar results were obtained in 3 to 5 separate experiments. (D) Surface Plasmon Resonance measurements were carried out in a BiaCore instrument as described in the Methods to measure the interaction of wild type and mutant GST-PDK1 preparations with the 24 residue synthetic peptide whose sequence encompasses the PDK1 binding site on PIF termed PIFtide [24: Example 2]. PIFtide was immobilised on a SA SensorChip and wild type (wt) or the indicated mutants of PDK1 were injected at a concentration of 40 nM. All data are single determinations from a representative experiment that was repeated at least 3 times with similar results. For clarity, the bulk, refractive index changes associated with the beginning and end 10 seconds of the injection have been removed.
(§2) Binding was analysed directly by surface plasmon resonance in an upgraded Bia-Lite™ system. PIFtide (comprising the last 24 residues of PRK2) was biotinylated though its C-terminal Cys and bound to an streptavidin-coated Sensor/Chip SA, as described previously. Wild type or mutant preparations of GST-PDK1 (10-400 nM) were injected in an intracellular type buffer, over the immobilised biotinylated PIFtide at a flow rate of 30 μl per min as described previously (James et al (1996) Biochem J 315, 709-713). Alternatively, the wild type or mutant preparations of GST-PDK1 (1 μM) were incubated with PIFtide or D978A-PIFtide (0.10 μM) and the mixture injected over the immobilised peptides. The decrease is steady state binding between wild type and mutant GST-PDK1 and peptide was used to determine the Kd of interaction between PDK1 and the peptide. The decrease in the maximal response at different concentrations of peptide was used to evaluate the relative affinities of both peptides for PDK1. The sensor chip surface was regenerated by pulses of 10 mM NaOH. […]

The next test addresses T2, GST-PDK1 L155D (human, UniProt O15530 1-556).
T2 construct: range 1-556; also called L155D mutant of GST-PDK1; not shown: N-terminal GST tag, pEBG2T vector
T2 sequence (looked up): T1 sequence (looked up) with E155D
Nature of the test: SPR over immobilised biotinylated PIFtide. As to the method:
as §1, §2

In another test the target is T3, GST-PDK1 L155S (human, UniProt O15530 1-556).
T3 construct: range 1-556; not shown: N-terminal GST tag, pEBG2T vector
T3 sequence (looked up): T1 sequence (looked up) with E155S
As to the kind of experiment: SPR over immobilised biotinylated PIFtide. As to the method:
as §1, §2

The next test has as its target T4, His-PDK1 (human, UniProt O15530 52-556).
T4 construct: range 52-556; Expressed in Sf9 cells; also called His-tagged PDK1; PDK1 (residues 52-556) with a hexahistidine tag; not shown: N-terminal hexahistidine (His) tag
T4 sequence (looked up): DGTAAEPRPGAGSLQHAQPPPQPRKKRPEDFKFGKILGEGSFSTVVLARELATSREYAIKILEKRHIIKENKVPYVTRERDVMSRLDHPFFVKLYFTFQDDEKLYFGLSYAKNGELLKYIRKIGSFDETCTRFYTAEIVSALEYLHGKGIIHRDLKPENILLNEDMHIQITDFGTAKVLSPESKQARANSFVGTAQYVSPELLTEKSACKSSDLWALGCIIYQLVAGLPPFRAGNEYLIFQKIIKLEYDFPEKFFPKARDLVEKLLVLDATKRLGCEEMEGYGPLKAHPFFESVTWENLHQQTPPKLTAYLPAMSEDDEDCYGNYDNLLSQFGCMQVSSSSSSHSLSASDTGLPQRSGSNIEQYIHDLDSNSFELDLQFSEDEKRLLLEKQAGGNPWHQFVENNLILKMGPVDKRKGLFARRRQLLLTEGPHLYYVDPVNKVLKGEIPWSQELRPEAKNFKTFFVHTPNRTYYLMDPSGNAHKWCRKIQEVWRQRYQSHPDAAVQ
As to the kind of experiment: SPR, immobilised biotinylated 24 residue peptide. (In general: In SPR one partner is held on a chip, and binding of the other changes the refractive index at the surface.)

B1: biotinylated PIFtide, immobilised (peptide)
peptide: REPRILSEEEQEMFRDFDYIADWC(Biotin)
notes: also called immobilised, biotinylated synthetic peptide termed PIFtide; immobilised and biotinylated 24 residue synthetic peptide
Turning to B1, the binding result in the test with GST-PDK1 L155E, in the test with GST-PDK1 L155D and with GST-PDK1 L155S was “no binding (tested: injected at 40 nM)” throughout. Also, the Kd in the test with His-PDK1 was 800 nM and 1500 nM.
